Target: bovine serum albumin (BSA) (bovine, UniProt P02769 25-607)
Assay: ELISA, BSA-coated plate, goat-anti-human HRP detection

bovine serum albumin (BSA), sequence (P02769 25-607 limits assumed): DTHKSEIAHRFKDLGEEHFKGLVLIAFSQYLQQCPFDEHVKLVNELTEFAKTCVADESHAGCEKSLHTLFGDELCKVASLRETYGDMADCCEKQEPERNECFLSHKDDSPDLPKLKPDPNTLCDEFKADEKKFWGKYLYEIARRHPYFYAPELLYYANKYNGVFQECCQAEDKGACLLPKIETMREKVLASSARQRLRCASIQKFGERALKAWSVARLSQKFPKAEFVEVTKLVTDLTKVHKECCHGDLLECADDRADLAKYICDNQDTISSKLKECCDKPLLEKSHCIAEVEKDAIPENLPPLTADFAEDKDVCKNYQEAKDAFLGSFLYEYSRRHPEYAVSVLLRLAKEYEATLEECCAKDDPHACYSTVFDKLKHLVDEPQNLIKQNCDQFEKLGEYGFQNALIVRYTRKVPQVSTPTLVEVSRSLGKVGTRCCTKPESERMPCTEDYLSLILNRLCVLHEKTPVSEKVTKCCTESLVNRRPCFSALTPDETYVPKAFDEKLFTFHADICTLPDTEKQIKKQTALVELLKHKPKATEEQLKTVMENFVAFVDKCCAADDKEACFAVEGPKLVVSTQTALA

B1: T427-αPE (B11 clone) IgG (bispecific, CD30 and PE38) (bispecific antibody)
light 1: not shown
heavy 1: not shown
light 2: MDIVLTQPPSASGTPGQRVTISCSGTSSDVGNSNLVSWYQQLPGTAPKLLIYGNSNRPSGVPDRFSGSKSGTSASLAISGLRSEDEADYYCCSYAGTGSPDVFGTGTKLTVLGQPKAAPSVTLFPPSSEELQANKATLVCLISDFYPGAVTVAWKADSSPVKAGVETTTPSKQSNNKYAASSYLSLTPEQWKSHRSYSCQVTHEGSTVEKTVAPAECS
heavy 2: MEVQLLETGGGLVQPGGSLRLSCAASGFTFDNYAINWVRQAPGKGLEWVSGISWNSGSIGYADSVKGRFTISRDNSKNTLYLQMNSLRAEDTAVYYCARGAPHYGGRGEFDFWGQGTLVTVSSASTKGPSVFPLAPSSKSTSGGTAALGCLVKDYFPEPVTVSWNSGALTSGVHTFPAVLQSSGLYSLSSVVTVPSSSLGTQTYICNVNHKPSNTKVDKRVEPKSCDKTHTCPPCPAPELLGRPSVFLFPPKPKDTLMISRTPEVTCVVVDVSHEDPEVKFNWYVDGVEVHNAKTKPREEQYNSTYRVVSVLTVLHQDWLNGKEYKCKVSNKALPAPIEKTISKAKGQPREPQVCTLPPSREEMTKNQVSLSCAVKGFYPSDIAVEWESNGQPENNYKTTPPVLDSDGSFFLVSKLTVDKSRWQQGNVFSCSVMHEALHNHYTQKSLSLSPGK
notes: also called T427-αPE (bispecific)
- binding result: no binding

From patent publication US20170174791A1 (RAMOT AT TEL AVIV UNIVERSITY, published 2017)
